Key:
[1] = target: amyloid beta peptide Aβ1-40
[2] = target: aggregated amyloid β1-40 pre-coated on 96 well plates (synthetic amyloid plaque, synthaloid)
[3] = target: amyloid beta peptide Aβ1-42
[4] = target: T1, human β-endorphin1-31, P01189
T1 chain: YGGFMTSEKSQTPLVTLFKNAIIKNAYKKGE

Protein | 125I-Aβ1-40 peptide degradation in primary neuronal cultures [1] | release of radioactivity from 125I-Aβ1-40 first deposited onto synthetic amyloid [2] | prevention of deposition of radiolabeled Aβ1-40 onto synthaloid, 60 minutes preincubation with insulysin (FIG. 9B) [1] | prevention of deposition of radiolabeled Aβ1-40 onto synthaloid, insulysin added at zero time (FIG. 9A) [1] | rate of cleavage of 25 µM Aβ1-40 [1] [µmols/min/mg enzyme] | sparing of neurotoxic effects on primary rat cortical neurons (30 µM Aβ1-40, 48 hrs) [1] | sparing of neurotoxic effects on primary rat cortical neurons (25 µM Aβ1-42, 48 hrs) [3] | specific activity of the recombinant enzyme (disappearance of β-endorphin by HPLC) [4] [µmols/min/mg]
human neprilysin expressed from a lentiviral construct in primary neuronal cultures of neprilysin deficient mice (protein) GKSESQMDITDINTPKPKKKQRWTPLEISLSVLVLLLTIIAVTMIALYATYDDGICKSSDCIKSAARLIQNMDATTEPCTDFFKYACGGWLKRNVIPETSSRYGNFDILRDELEVVLKDVLQEPKTEDIVAVQKAKALYRSCINESAIDSRGGEPLLKLLPDIYGWPVATENWEQKYGASWTAEKAIAQLNSKYGKKVLINLFVGTDDKNSVNHVIHIDQPRLGLPSRDYYECTGIYKEACTAYVDFMISVARLIRQEERLPIDENQLALEMNKVMELEKEIANATAKPEDRNDPMLLYNKMTLAQIQNNFSLEINGKPFSWLNFTNEIMSTVNISITNEEDVVVYAPEYLTKLKPILTKYSARDLQNLMSWRFIMDLVSSLSRTYKESRNAFRKALYGTTSETATWRRCANYVNGNMENAVGRLYVEAAFAGESKHVVEDLIAQIREVFIQTLDDLTWMDAETKKRAEEKALAIKERIGYPDDIVSNDNKLNNEYLELNYKEDEYFENIIQNLKFSQSKQLKKLREKVDKDEWISGAAVVNAFYSSGRNQIVFPAGILQPPFFSAQQSNSLNYGGIGMVIGHEITHGFDDNGRNFNKDGDLVDWWTQQSASNFKEQSQCMVYQYGNFSWDLAGGQHLNGINTLGENIADNGGLGQAYRAYQNYIKKNGEEKLLPGLDLNHKQLFFLNFAQVWCGTYRPEYAVNSIKTDVHSPGNFRIIGTLQNSAEFSEAFHCRKNSYMNPEKKCRVW | neprilysin expressing neuronal cell cultures virtually destroyed all Aβ peptide in comparison to the controls |  |  |  |  |  |  | 
recombinant rat insulysin with an N-terminal His6 affinity tag, expressed in baculovirus-infected Sf9 cells (protein) MNNPAIQRIEDHIVKSPEDKREYRGLELANGIKVLLISDPTTDKSSAALDVHIGSLSDPPNIPGLSHFCEHMLFLGTKKYPKENEYSQFLSEHAGSSNAFTSGEHTNYYFDVSHEHLEGALDRFAQFFLCPLFDASCKDREVNAVDSEHEKNVMNDAWRLFQLEKATGNPKHPFSKFGTGNKYTLETRPNQEGIDVREELLKFHSTYYSSNLMAICVLGRESLDDLTNLVVKLFSEVENKNVPLPEFPEHPFQEEHLKQLYKIVPIKDIRNLYVTFPIPDLQQYYKSNPGHYLGHLIGHEGPGSLLSELKSKGWVNTLVGGQKEGARGFMFFIINVDLTEEGLLHVEDIILHMFQYIQKLRAEGPQEWVFQECKDLNAVAFRFKDKERPRGYTSKIAGKLHYYPLNGVLTAEYLLEEFRPDLIDMVLDKLRPENVRVAIVSKSFEGKTDRTEQWYGTQYKQEAIPEDVIQKWQNADLNGKFKLPTKNEFIPTNFEILALEKDATPYPALIKDTAMSKLWFKQDDKFFLPKACLNFEFFSPFAYVDPLHCNMAYLYLELLKDSLNEYAYAAELAGLSYDLQNTIYGMYLSVKGYNDKQPILLKKITEKMATFEIDKKRFEIIKEAYMRSLNNFRAEQPHQHAMYYLRLLMTEVAWTKDELKEALDDVTLPRLKAFIPQLLSRLHIEALLHGNITKQAALGVMQMVEDTLIEHAHTKPLLPSQLVRYREVQLPDRGWFVYQRRNEVHNNCGIEIYYQTDMQSTSENMFLELFCQIISEPCFNTLRTKEQLGYIVFSGPRRANGIQGLRFIIQSEKPPHYLESRVEAFLITMEKAIEDMTEEAFQKHIQALAIRRLDKPKKLSAECAKYWGEIISQQYNYDRDNIEVAYLKTLSKDDIIKFYKEMLAVDAPRRHKVSVHVLAREMDSCPVVGEFPSQNDINLSEAPPLPQPEVIHNMTEFKRGLPLFPLVKPHINFMAAKL |  | After a 24 hr incubation with 5 µg of insulysin no radioactivity was released | 50 ng insulysin is able to prevent the deposition of radiolabeled Aβ1-40 onto the synthetic amyloid | 50 ng of insulysin is able to prevent the deposition of radiolabeled Aβ1-40 | 1.2 | as little as 50 ng of insulysin was effective in sparing the neurotoxic effects of Aβ1-40 | 500 ng of insulysin was effective in sparing the neurotoxic effects of Aβ1-42 | 2.6

From patent publication US7807396
